Laboratory results taken from article PMC7094300 (Febs Letters, 2006).

Biological target: the molecule itself
Assay: small-angle X-ray scattering + cross-linking + other: enzyme kinetics

B1: SARS CoV main proteinase (enzyme)
chain: SGFRKMAFPSGKVEGCMVQVTCGTTTLNGLWLDDTVYCPRHVICTAEDMLNPNYEDLLIRKSNHSFLVQAGNVQLRVIGHSMQNCLLRLKVDTSNPKTPKYKFVRIQPGQTFSVLACYNGSPSGVYQCAMRPNHTIKGSFLNGSCGSVGFNIDYDCVSFCYMHHMELPTGVHAGTDLEGKFYGPFVDRQTAQAAGTDTTITLNVLAWLYAAVINGDRWFLNRFTTTLNDFNLVAMKYNYEPLTQDHVDILGPLSAQTGIAVLDMCAALKELLQNGMNGRTILGSTILEDEFTPFDVVRQCSGVTFQ
Q: How did the “stoichiometry N” value turn out when B1 was run?
A: Its value is 2.
